According to publication PMC10352329 (Nature Communications, 2023):
Where no end group is shown, it is not given here.

T1: human p300BRP (residues 1048–1282), wild type (human, UniProt Q09472 1048-1282, fluorescently labeled with a His tag Labeling Kit (microscale thermophoresis only))
T1 sequence (looked up): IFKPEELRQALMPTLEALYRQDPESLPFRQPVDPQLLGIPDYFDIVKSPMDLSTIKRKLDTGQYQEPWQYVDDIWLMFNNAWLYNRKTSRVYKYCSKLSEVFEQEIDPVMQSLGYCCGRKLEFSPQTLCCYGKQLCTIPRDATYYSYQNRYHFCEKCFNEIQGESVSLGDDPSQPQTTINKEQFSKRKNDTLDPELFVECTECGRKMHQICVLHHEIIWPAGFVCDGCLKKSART

B1: human p300_(BRPHZT) (residues 1048–1836) (domain or fragment)
chain: IFKPEELRQALMPTLEALYRQDPESLPFRQPVDPQLLGIPDYFDIVKSPMDLSTIKRKLDTGQYQEPWQYVDDIWLMFNNAWLYNRKTSRVYKYCSKLSEVFEQEIDPVMQSLGYCCGRKLEFSPQTLCCYGKQLCTIPRDATYYSYQNRYHFCEKCFNEIQGESVSLGDDPSQPQTTINKEQFSKRKNDTLDPELFVECTECGRKMHQICVLHHEIIWPAGFVCDGCLKKSARTRKENKFSAKRLPSTRLGTFLENRVNDFLRRQNHPESGEVTVRVVHASDKTVEVKPGMKARFVDSGEMAESFPYRTKALFAFEEIDGVDLCFFGMHVQEYGSDCPPPNQRRVYISYLDSVHFFRPKCLRTAVYHEILIGYLEYVKKLGYTTGHIWACPPSEGDDYIFHCHPPDQKIPKPKRLQEWYKKMLDKAVSERIVHDYKDIFKQATEDRLTSAKELPYFEGDFWPNVLEESIKELEQEEEERKREENTSNESTDVTKGDSKNAKKKNNKKTSKNKSSLSRGNKKKPGMPNVSNDLSQKLYATMEKHKEVFFVIRLIAGPAANSLPPIVDPDPLIPCDLMDGRDAFLTLARDKHLEFSSLRRAQWSTMCMLVELHTQSQDRFVYTCNECKHHVETRWHCTVCEDYDLCITCYNTKNHDHKMEKLGLGLDDESNNQQAAATQSPGDSRRLSIQRCIQSLVHACQCRNANCSLPSCQKMKRVVQHTKGCKRKTNGGCPICKQLIALCCYHAKHCQENKCPVPFCLNIKQKLRQQQLQHRLQQAQMLRRRMASMQ
modifications: autoacetylated form containing K1542ac, K1546ac, K1549ac, K1550ac, K1551ac, K1554ac, K1555ac, K1558ac and K1560ac
B2: human CBP_(BRPHZT) (residues 1084–1873) (domain or fragment)
chain: IFKPEELRQALMPTLEALYRQDPESLPFRQPVDPQLLGIPDYFDIVKNPMDLSTIKRKLDTGQYQEPWQYVDDVWLMFNNAWLYNRKTSRVYKFCSKLAEVFEQEIDPVMQSLGYCCGRKYEFSPQTLCCYGKQLCTIPRDAAYYSYQNRYHFCEKCFTEIQGENVTLGDDPSQPQTTISKDQFEKKKNDTLDPEPFVDCKECGRKMHQICVLHYDIIWPSGFVCDNCLKKTGRPRKENKFSAKRLQTTRLGNHLEDRVNKFLRRQNHPEAGEVFVRVVASSDKTVEVKPGMKSRFVDSGEMSESFPYRTKALFAFEEIDGVDVCFFGMHVQEYGSDCPPPNTRRVYISYLDSIHFFRPRCLRTAVYHEILIGYLEYVKKLGYVTGHIWACPPSEGDDYIFHCHPPDQKIPKPKRLQEWYKKMLDKAFAERIIHDYKDIFKQATEDRLTSAKELPYFEGDFWPNVLEESIKELEQEEEERKKEESTAASETTEGSQGDSKNAKKKNNKKTNKNKSSISRANKKKPSMPNVSNDLSQKLYATMEKHKEVFFVIHLHAGPVINTLPPIVDPDPLLSCDLMDGRDAFLTLARDKHWEFSSLRRSKWSTLCMLVELHTQGQDRFVYTCNECKHHVETRWHCTVCEDYDLCINCYNTKSHAHKMVKWGLGLDDEGSSQGEPQSKSPQESRRLSIQRCIQSLVHACQCRNANCSLPSCQKMKRVVQHTKGCKRKTNGGCPVCKQLIALCCYHAKHCQENKCPVPFCLNIKHKLRQQQIQHRLQQAQLMRRRMATMN

Columns and labels:
Details in all cases: both partners purified
[1] = target: T2, K12/K16-acetylated human histone H4 (as it stands in H4acNuc) (human, UniProt P62805 1-103, acetyl-lysine at K12 and K16); assay: cryo-EM structure; p300_(BRPHZT) or CBP_(BRPHZT), acetyl-CoA and nucleosome mixed 4:6:1 in 20 mM HEPES-NaOH pH 7.2, 150 mM NaCl, 1 μM ZnCl2, 1 mM TCEP; purified and cross-linked by GraFix (glutaraldehyde)
T2 construct: human histone H4 ORF with the codons of K12 and K16 replaced by TAG for acetyllysine; The H4 chain of m6; met p300/CBP only inside the nucleosome; also called H4K12ac/K16ac; H4NTac; source: cell-free synthesis (E. coli S30 extract, genetic code reprogramming), purified, assembled into H4acNuc

[2] = target: N-terminal bromodomain of human BRD4 (residues 44–168) (human, UniProt O60885 44-168); assay: ITC; 100 µM protein in the cell, 1 mM acetylated histone NT peptide in the syringe; 25 °C; 10 mM HEPES-NaOH pH 7.4, 150 mM NaCl; single binding site model
[3] = target: T1, human p300BRP (residues 1048–1282), …; assay: as above

Binder | binding result [1] | other results
B1 | binds | 
PAPKK(Ac)GSK(Ac)KAVTK [di-acetylated H2B peptide K12ac/K15ac] |  | Kd [2]: 430 ± 5 µM
KAVTK(Ac)AQK(Ac)KDGK [di-acetylated H2B peptide K20ac/K23ac] |  | Kd [3]: 200 ± 30 µM
B2 | binds | 
